In article PMC5399559 (2017) one finds Kd data, which are given here for one molecule.

In assay [1] the target is taxol-stabilized microtubules (MTs). The experiment in a line: 200 mM KCl.
Assay [2] shares this target. The experiment in a line: 100 mM KCl.
Assay [3] shares this target. The experiment in a line: 30 mM KCl.

Chain of taxol-stabilized microtubules (MTs) (chain, as listed by the source, chain 1 of 2): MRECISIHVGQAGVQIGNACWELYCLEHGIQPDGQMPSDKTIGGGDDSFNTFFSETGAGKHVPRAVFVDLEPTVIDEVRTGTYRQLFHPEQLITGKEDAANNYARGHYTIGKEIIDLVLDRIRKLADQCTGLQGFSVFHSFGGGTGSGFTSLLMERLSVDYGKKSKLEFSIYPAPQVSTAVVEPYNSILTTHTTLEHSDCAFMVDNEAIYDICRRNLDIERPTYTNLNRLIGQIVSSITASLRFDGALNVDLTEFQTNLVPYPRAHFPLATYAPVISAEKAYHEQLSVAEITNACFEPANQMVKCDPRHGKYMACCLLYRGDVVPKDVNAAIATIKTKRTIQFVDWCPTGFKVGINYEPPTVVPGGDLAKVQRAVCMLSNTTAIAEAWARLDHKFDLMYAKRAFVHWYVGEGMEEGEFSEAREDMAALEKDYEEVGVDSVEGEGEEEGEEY
Chain of taxol-stabilized microtubules (MTs) (chain, as listed by the source, chain 2 of 2): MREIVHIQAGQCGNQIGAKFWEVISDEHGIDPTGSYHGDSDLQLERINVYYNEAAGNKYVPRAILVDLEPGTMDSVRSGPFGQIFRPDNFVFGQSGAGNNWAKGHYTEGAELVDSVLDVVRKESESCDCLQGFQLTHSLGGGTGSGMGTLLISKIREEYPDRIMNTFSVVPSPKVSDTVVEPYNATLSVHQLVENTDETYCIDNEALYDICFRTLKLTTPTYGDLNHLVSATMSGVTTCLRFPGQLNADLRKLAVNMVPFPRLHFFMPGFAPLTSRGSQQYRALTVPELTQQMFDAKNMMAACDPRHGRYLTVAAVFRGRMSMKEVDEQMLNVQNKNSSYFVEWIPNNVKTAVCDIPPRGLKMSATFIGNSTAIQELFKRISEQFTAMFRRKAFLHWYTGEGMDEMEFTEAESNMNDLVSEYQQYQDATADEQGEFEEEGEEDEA

B1: MBP-Kif18A^tail-His6 (tail of Xl_Kif18A, aa 846-953) (domain or fragment)
chain: PSYMAMTSAAERKRKLLSLAGNSAVKEDSVPLPTAKRVRQDIALDCKALRVQRVAAGTTRSKDNCARRRLPKSVSEGALGVKTKPFSFQGSAQLLFQGGKKKAALKDP
The term Kd denotes the free concentration of one partner at which half of the binding sites on the other are occupied at equilibrium, for simple one-to-one binding. Read a low Kd as higher affinity. On to B1, for which the dissociation constant (Kd) in assay [1] was determined as 3010 nM; in assay [2], 770 nM; in assay [3], 340 nM.
